Values quoted from earlier work, collected in PMC5490247.
pKd: −log10 of the molar value. Read-outs that look alike come from different tables or passages of the source.

Columns and labels:
[1] = biological target: IL-6R (Homo sapiens) (UniProt P08887)
[2] = biological target: IL-6R (Homo sapiens) (UniProt P08887); remark: listed apart in the source

Sequence of UniProt P08887 (P08887 20-355): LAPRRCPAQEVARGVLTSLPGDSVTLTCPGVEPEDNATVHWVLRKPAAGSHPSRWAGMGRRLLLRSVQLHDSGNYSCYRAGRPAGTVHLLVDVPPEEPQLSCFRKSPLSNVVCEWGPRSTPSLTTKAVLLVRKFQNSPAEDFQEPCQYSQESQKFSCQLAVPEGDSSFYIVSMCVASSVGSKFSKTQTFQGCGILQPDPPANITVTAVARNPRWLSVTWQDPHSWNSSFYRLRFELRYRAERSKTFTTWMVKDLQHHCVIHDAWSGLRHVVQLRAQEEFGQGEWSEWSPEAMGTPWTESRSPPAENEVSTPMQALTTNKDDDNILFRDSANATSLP

pKd [1] | pKd [2] | Substance
9.00 | – | IL-6 (from UniProt P05231)
– | 8.60 | Tocilizumab
